For series [1], the system named is HeLa Kyoto. Nature of the series: solubility in G1/S (NP-40 vs SDS abundance) (log2 ratio); higher = more soluble. The settings on record: cell cycle stage: G1/S.
For series [2], the system named is HeLa Kyoto. In words: melting temperature (median over replicates), in situ; higher = more thermally stable.
The test system of series [3] is HeLa Kyoto. In words: solubility change mitosis vs G1/S (difference of NP-40 vs SDS log2 ratios) (log2 ratio difference); higher = more soluble in mitosis.
Series [4] concerns HeLa Kyoto. In words: thermal stability score vs G1/S (z-score of summed log2 fold changes over temperatures); higher = more thermally stable than in G1/S.
The mark [5] stands for this setting: cell cycle stage: early G1 (4.5 h after nocodazole release).
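Wherever melting temperature (median over replicates), in situ is given: HeLa Kyoto cells synchronized by double thymidine or nocodazole block, proteins quantified by TMT10plex mass spectrometry, three independent biological replicates.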
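Wherever solubility change mitosis vs G1/S (difference of NP-40 vs SDS log2 ratios) is given: synchronized HeLa Kyoto cells (double thymidine block for G1/S, nocodazole release for mitosis), protein amounts in NP-40 versus SDS lysates quantified by mass spectrometry, three biological replicates.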
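Wherever solubility in G1/S (NP-40 vs SDS abundance) is given: HeLa Kyoto cells arrested at G1/S by double thymidine block, proteins quantified by TMT10plex mass spectrometry in mild NP-40 versus SDS extracts, three biological replicates.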
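Wherever thermal stability score vs G1/S (z-score of summed log2 fold changes over temperatures) is given: synchronized HeLa Kyoto cells, proteins quantified by TMT10plex mass spectrometry, three biological replicates, mitosis taken 0.5 h after nocodazole release, G1/S directly after double thymidine block.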

Regarding “MGWVGGRRRDSASPPGRSRSAADDINPAPANMEGGGGSVAVAGLGARGSGAAAATVRELLQDGCYSDFLNEDFDVKTYTSQSIHQAVIAEQLAKLAQGISQLDRELHLQVVARHEDLLAQATGIESLEGVLQMMQTRIGALQGAVDRIKAKIVEPYNKIVARTAQLARLQVACDLLRRIIRILNLSKRLQGQLQGGSREITKAAQSLNELDYLSQGIDLSGIEVIENDLLFIARARLEVENQAKRLLEQGLETQNPTQVGTALQVFYNLGTLKDTITSVVDGYCATLEENINSALDIKVLTQPSQSAVRGGPGRSTMPTPGNTAALRASFWTNMEKLMDHIYAVCGQVQHLQKVLAKKRDPVSHICFIEEIVKDGQPEIFYTFWNSVTQALSSQFHMATNSSMFLKQAFEGEYPKLLRLYNDLWKRLQQYSQHIQGNFNASGTTDLYVDLQHMEDDAQDIFIPKKPDYDPEKALKDSLQPYEAAYLSKSLSRLFDPINLVFPPGGRNPPSSDELDGIIKTIASELNVAAVDTNLTLAVSKNVAKTIQLYSVKSEQLLSTQGDASQVIGPLTEGQRRNVAVVNSLYKLHQSVTKVVSSQSSFPLAAEQTIISALKAIHALMENAVQPLLTSVGDAIEAIIITMHQEDFSGSLSSSGKPDVPCSLYMKELQGFIARVMSDYFKHFECLDFVFDNTEAIAQRAVELFIRHASLIRPLGEGGKMRLAADFAQMELAVGPFCRRVSDLGKSYRMLRSFRPLLFQASEHVASSPALGDVIPFSIIIQFLFTRAPAELKSPFQRAEWSHTRFSQWLDDHPSEKDRLLLIRGALEAYVQSVRSREGKEFAPVYPIMVQLLQKAMSALQ [COG5]”, the “solubility in G1/S (log2)” value in the series on HeLa Kyoto [1] was 0.00411. The figures for the melting temperature with HeLa Kyoto [2] (cell cycle stage: G1/S) and with HeLa Kyoto [2] (cell cycle stage: mitosis) were 48.3 °C and 48 °C, respectively. Besides, the “solubility change mitosis (log2)” value in the series with HeLa Kyoto [3] is -0.0443. In addition, the thermal stability score in the series with HeLa Kyoto [4] (setting [5]) worked out at 0.309; in the series on HeLa Kyoto [4] (cell cycle stage: mitosis), 0.873.
On to “MGYFRCARAGSFGRRRKMEPSTAARAWALFWLLLPLLGAVCASGPRTLVLLDNLNVRETHSLFFRSLKDRGFELTFKTADDPSLSLIKYGEFLYDNLIIFSPSVEDFGGNINVETISAFIDGGGSVLVAASSDIGDPLRELGSECGIEFDEEKTAVIDHHNYDISDLGQHTLIVADTENLLKAPTIVGKSSLNPILFRGVGMVADPDNPLVLDILTGSSTSYSFFPDKPITQYPHAVGKNTLLIAGLQARNNARVIFSGSLDFFSDSFFNSAVQKAAPGSQRYSQTGNYELAVALSRWVFKEEGVLRVGPVSHHRVGETAPPNAYTVTDLVEYSIVIQQLSNGKWVPFDGDDIQLEFVRIDPFVRTFLKKKGGKYSVQFKLPDVYGVFQFKVDYNRLGYTHLYSSTQVSVRPLQHTQYERFIPSAYPYYASAFSMMLGLFIFSIVFLHMKEKEKSD [DDOST]”, for which the “solubility in G1/S (log2)” value with HeLa Kyoto [1] is -0.0357. Also, the melting temperature with HeLa Kyoto [2] (cell cycle stage: G1/S) came out at 54.1 °C; in the series with HeLa Kyoto [2] (cell cycle stage: mitosis) it was 54.2 °C. For the same sequence, the “solubility change mitosis (log2)” value in the series with HeLa Kyoto [3] was -0.163. Also, the thermal stability score is 2.5 in the series on HeLa Kyoto [4] (setting [5]) and 2.41 with HeLa Kyoto [4] (cell cycle stage: mitosis).
With “MHDAFEPVPILEKLPLQIDCLAAWEEWLLVGTKQGHLLLYRIRKDVVPADVASPESGSCNRFEVTLEKSNKNFSKKIQQIHVVSQFKILVSLLENNIYVHDLLTFQQITTVSKAKGASLFTCDLQHTETGEEVLRMCVAVKKKLQLYFWKDREFHELQGDFSVPDVPKSMAWCENSICVGFKRDYYLIRVDGKGSIKELFPTGKQLEPLVAPLADGKVAVGQDDLTVVLNEEGICTQKCALNWTDIPVAMEHQPPYIIAVLPRYVEIRTFEPRLLVQSIELQRPRFITSGGSNIIYVASNHFVWRLIPVPMATQIQQLLQDKQFELALQLAEMKDDSDSEKQQQIHHIKNLYAFNLFCQKRFDESMQVFAKLGTDPTHVMGLYPDLLPTDYRKQLQYPNPLPVLSGAELEKAHLALIDYLTQKRSQLVKKLNDSDHQSSTSPLMEGTPTIKSKKKLLQIIDTTLLKCYLHTNVALVAPLLRLENNHCHIEESEHVLKKAHKYSELIILYEKKGLHEKALQVLVDQSKKANSPLKGHERTVQYLQHLGTENLHLIFSYSVWVLRDFPEDGLKIFTEDLPEVESLPRDRVLGFLIENFKGLAIPYLEHIIHVWEETGSRFHNCLIQLYCEKVQGLMKEYLLSFPAGKTPVPAGEEEGELGEYRQKLLMFLEISSYYDPGRLICDFPFDGLLEERALLLGRMGKHEQALFIYVHILKDTRMAEEYCHKHYDRNKDGNKDVYLSLLRMYLSPPSIHCLGPIKLELLEPKANLQAALQVLELHHSKLDTTKALNLLPANTQINDIRIFLEKVLEENAQKKRFNQVLKNLLHAEFLRVQEERILHQQVKCIITEEKVCMVCKKKIGNSAFARYPNGVVVHYFCSKEVNPADT [VPS39]”, the “solubility in G1/S (log2)” value in the series on HeLa Kyoto [1] is -0.174. Further, the melting temperature amounted to 50.8 °C in the series on HeLa Kyoto [2] (cell cycle stage: G1/S) and 50.1 °C with HeLa Kyoto [2] (cell cycle stage: mitosis). The “solubility change mitosis (log2)” value in the series with HeLa Kyoto [3] was -0.261. Also, the figures for the thermal stability score in the series with HeLa Kyoto [4] (setting [5]) and in the series with HeLa Kyoto [4] (cell cycle stage: mitosis) were 0.627 and 0.376, respectively.

For the origin of these results see the supplement of paper PMC5998384.
